Measurements: IntAct's records for PubMed 31515488

B1: 6-pyruvoyl tetrahydrobiopterin synthase (Homo sapiens), Q03393 (parent)
chain: MSTEGGGRRCQAQVSRRISFSASHRLYSKFLSDEENLKLFGKCNNPNGHGHNYKVVVTVHGEIDPATGMVMNLADLKKYMEEAIMQPLDHKNLDMDVPYFADVVSTTENVAVYIWDNLQKVLPVGVLYKVKVYETDNNIVVYKGE
B2: Transmembrane protein 51 (Homo sapiens), Q9NW97 (parent)
chain: MMAQSKANGSHYALTAIGLGMLVLGVIMAMWNLVPGFSAAEKPTAQGSNKTEVGGGILKSKTFSVAYVLVGAGVMLLLLSICLSIRDKRKQRQGEDLAHVQHPTGAGPHAQEEDSQEEEEEDEEAASRYYVPSYEEVMNTNYSEARGEEQNPRLSISLPSYESLTGLDETTPTSTRADVEASPGNPPDRQNSKLAKRLKPLKVRRIKSEKLHLKDFRINLPDKNVPPPSIEPLTPPPQYDEVQEKAPDTRPPD
partner: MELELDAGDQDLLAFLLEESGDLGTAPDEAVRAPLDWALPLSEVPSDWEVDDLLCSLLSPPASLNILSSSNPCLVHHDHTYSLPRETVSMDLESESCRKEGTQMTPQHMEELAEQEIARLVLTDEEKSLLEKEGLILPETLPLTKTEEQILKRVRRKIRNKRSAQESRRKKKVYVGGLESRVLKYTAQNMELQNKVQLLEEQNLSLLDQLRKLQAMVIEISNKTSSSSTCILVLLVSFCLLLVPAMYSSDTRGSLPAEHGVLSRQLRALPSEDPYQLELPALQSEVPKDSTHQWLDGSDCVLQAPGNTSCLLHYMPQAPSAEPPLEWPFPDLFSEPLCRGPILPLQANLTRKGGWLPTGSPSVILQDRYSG
B3: Medium-chain acyl-CoA ligase ACSF2, mitochondrial (Homo sapiens), Q96CM8 (parent)
chain: MAVYVGMLRLGRLCAGSSGVLGARAALSRSWQEARLQGVRFLSSREVDRMVSTPIGGLSYVQGCTKKHLNSKTVGQCLETTAQRVPEREALVVLHEDVRLTFAQLKEEVDKAASGLLSIGLCKGDRLGMWGPNSYAWVLMQLATAQAGIILVSVNPAYQAMELEYVLKKVGCKALVFPKQFKTQQYYNVLKQICPEVENAQPGALKSQRLPDLTTVISVDAPLPGTLLLDEVVAAGSTRQHLDQLQYNQQFLSCHDPINIQFTSGTTGSPKGATLSHYNIVNNSNILGERLKLHEKTPEQLRMILPNPLYHCLGSVAGTMMCLMYGATLILASPIFNGKKALEAISRERGTFLYGTPTMFVDILNQPDFSSYDISTMCGGVIAGSPAPPELIRAIINKINMKDLVVAYGTTENSPVTFAHFPEDTVEQKAESVGRIMPHTEARIMNMEAGTLAKLNTPGELCIRGYCVMLGYWGEPQKTEEAVDQDKWYWTGDVATMNEQGFCKIVGRSKDMIIRGGENIYPAELEDFFHTHPKVQEVQVVGVKDDRMGEEICACIRLKDGEETTVEEIKAFCKGKISHFKIPKYIVFVTNYPLTISGKIQKFKLREQMERHLNL
B4: Germ cell-less protein-like 1 (Homo sapiens), Q96IK5 (parent)
chain: MGSLSSRVLRQPRPALAQQAQGARAGGSARRPDTGDDAAGHGFCYCAGSHKRKRSSGSFCYCHPDSETDEDEEEGDEQQRLLNTPRRKKLKSTSKYIYQTLFLNGENSDIKICALGEEWSLHKIYLCQSGYFSSMFSGSWKESSMNIIELEIPDQNIDVEALQVAFGSLYRDDVLIKPSRVVAILAAACLLQLDGLIQQCGETMKETVNVKTVCGYYTSAGTYGLDSVKKKCLEWLLNNLMTHQNVELFKELSINVMKQLIGSSNLFVMQVEMDIYTALKKWMFLQLVPSWNGSLKQLLTETDVWFSKQRKDFEGMAFLETEQGKPFVSVFRHLRLQYIISDLASARIIEQDAVVPSEWLSSVYKQQWFAMLRAEQDSEVGPQEINKEELEGNSMRCGRKLAKDGEYCWRWTGFNFGFDLLVTYTNRYIIFKRNTLNQPCSGSVSLQPRRSIAFRLRLASFDSSGKLICSRTTGYQILTLEKDQEQVVMNLDSRLLIFPLYICCNFLYISPEKKN

Variants of: B1
Conditions: with c1qc_human C1QC

Row | Variant | effect of a mutation on the interaction
1 | R9C | disrupting interaction strength

Variants of: B1
Conditions: with ntaq1_human NTAQ1, Q96HA8

Row | Variant | effect of a mutation on the interaction
2 | R9C | disrupting interaction strength
3 | T67M | disrupting interaction strength

Variants of: B1
Conditions: with fxr2_human FXR2, P51116

Row | Variant | effect of a mutation on the interaction
4 | R9C | disrupting interaction strength

Variants of: B2
Conditions: with creb3_human CREB3, O43889

Row | Variant | effect of a mutation on the interaction
5 | D188G | with no effect
6 | P237L | with no effect
7 | P159S | with no effect
8 | R146W | with no effect

Variants of: B3
Conditions: with atrap_human AGTRAP

Row | Variant | effect of a mutation on the interaction
9 | A34V | disrupting interaction strength
10 | G19W | disrupting interaction strength

Variants of: B3
Conditions: with ar6p1_human ARL6IP1, Q15041
Chain of ar6p1_human ARL6IP1, Q15041 (Q15041 whole entry): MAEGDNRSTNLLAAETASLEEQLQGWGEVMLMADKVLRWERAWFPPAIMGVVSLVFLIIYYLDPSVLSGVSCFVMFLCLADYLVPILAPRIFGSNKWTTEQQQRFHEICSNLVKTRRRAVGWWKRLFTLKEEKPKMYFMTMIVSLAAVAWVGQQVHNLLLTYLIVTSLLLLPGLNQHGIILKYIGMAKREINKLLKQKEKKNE

Row | Variant | effect of a mutation on the interaction
11 | A34V | disrupting interaction strength
12 | G19W | disrupting interaction strength

Variants of: B4
Conditions: with cul3_human CUL3, Q13618

Row | Variant | effect of a mutation on the interaction
13 | R449Q | with no effect
14 | K281Q | with no effect
15 | I147V | with no effect
16 | K123R | with no effect
17 | E77K | with no effect
18 | R457H | with no effect

Variants of: B4
Conditions: with FAM167A

Row | Variant | effect of a mutation on the interaction
19 | R449Q | with no effect
20 | K281Q | disrupting interaction strength
21 | I147V | with no effect
22 | K123R | with no effect
23 | E77K | with no effect
24 | R457H | disrupting interaction strength
